Results from US20240360183A1 (SHANGHAI PUYOU BIOMEDICAL, published 2024).
Positions count from the first letter of the chain named.

B1: CF-11 (SEQ ID NO: 31) (peptide)
chain: SEKKQPVDLGLLEEDDEFEEFPAEDWAGLDEDEDAHVWEDNWDDDNVEDDFSNQLRATVLLMILVVETPYGVYVLHQKGRMVSAFLVV
B2: CF-39 (SEQ ID NO: 52) (peptide)
chain: B1 chain with D34S, E48T, D49S, V66C, V72C, V82C, V87C, V88C
B3: CF-10 (SEQ ID NO: 30) (peptide)
chain: B1 chain with V66C, V72C, V82C, V87C, V88A
B4: CF-38 (SEQ ID NO: 51) (peptide)
chain: B1 chain with E2T, D25S, D34S, E48T, D49S, V66C, V72C, V82C, V87C, V88C
B5: CF-22 (SEQ ID NO: 36) (peptide)
chain: B1 chain with V72A, V82A
B6: CF-40 (SEQ ID NO: 53) (peptide)
chain: B1 chain with E48T, D49S, V66C, V72C, V82C, V87C, V88C
B7: CF-04 (SEQ ID NO: 29) (peptide)
chain: B1 chain with V66A, V72A, V82A, V87A, V88A
B8: CF-25 (SEQ ID NO: 39) (peptide)
chain: B1 chain with V82A, V87A
B9: CF-24 (SEQ ID NO: 38) (peptide)
chain: B1 chain with V72A, V88A
B10: CF-43 (SEQ ID NO: 54) (peptide)
chain: SEKKQPVDLGLLEEDDEFEEFPAEDWAGLDEDEDAHVWEDNWDDDNVTSDFSNQLRATVLLMILVCETPYGCYVLHQKGRMCS
B11: CF-29 (SEQ ID NO: 46) (peptide)
chain: SELDFWDNWKDRQADLPAASDDEDFENDLAEVDHEDPLVDGNEWDGDEVEFELEEQKTVLLMILVCETPYGCYVLHQKGRMCSAFLCC
B12: CF-30 (SEQ ID NO: 47) (peptide)
chain: SDADEFDDDNSVWGWEDDEVEPNDAFQPLGDVRANEELDEKDHKLDEEADLQWEFELTVLLMILVCETPYGCYVLHQKGRMCSAFLCC
B13: CF-28 (SEQ ID NO: 45) (peptide)
chain: SEFEDANKEQGEVPNDDVSDELPKLLDDDEDELRGALFFQWHDWEEAEDNDWDVEDATVLLMILVCETPYGCYVLHQKGRMCSAFLCC
B14: CF-31 (SEQ ID NO: 48) (peptide)
chain: SQWAPLDHLESDEWGAFEDEDFNNGDVEELDPEERDDEDLFQKDVLVAKADDEEWDNTVLLMILVCETPYGCYVLHQKGRMCSAFLCC

Target: BSA (UniProt P02769 25-607)
Assay: cell-based or functional assay

BSA, sequence (P02769 25-607 limits assumed): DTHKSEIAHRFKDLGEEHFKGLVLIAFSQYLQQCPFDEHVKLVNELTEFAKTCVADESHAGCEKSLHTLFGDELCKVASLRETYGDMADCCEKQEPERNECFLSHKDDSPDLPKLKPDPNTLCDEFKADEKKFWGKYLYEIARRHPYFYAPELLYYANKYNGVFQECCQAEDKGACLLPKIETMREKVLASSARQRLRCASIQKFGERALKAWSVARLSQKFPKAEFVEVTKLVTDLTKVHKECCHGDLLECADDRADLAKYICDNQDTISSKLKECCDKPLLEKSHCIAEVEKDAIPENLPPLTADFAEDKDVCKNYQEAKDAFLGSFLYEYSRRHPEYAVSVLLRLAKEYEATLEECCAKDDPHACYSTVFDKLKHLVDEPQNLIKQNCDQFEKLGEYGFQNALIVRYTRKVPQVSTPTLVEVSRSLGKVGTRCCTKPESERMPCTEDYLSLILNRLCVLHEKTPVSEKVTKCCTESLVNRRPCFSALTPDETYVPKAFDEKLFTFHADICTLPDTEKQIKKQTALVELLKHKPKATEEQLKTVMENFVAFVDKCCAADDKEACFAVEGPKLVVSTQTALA

Binder	IC50 (µM) for inhibiting thermal aggregation of BSA [µM]
B1	~7
B2	10.5
B3	13.8
B4	13.8
B5	16.9
B6	12
B7	~10.2
B8	21.5
B9	17.6
B10	6.77
B11	13.8
B12	21.3
B13	7.48
B14	12.8

Target: oxidized HSA protein (UniProt P02768 25-609, oxidized with 8 mM NaClO in the dark for 30 min (which residues are oxidized is not stated))
Assay: cell-based or functional assay

oxidized HSA protein, sequence (P02768 25-609): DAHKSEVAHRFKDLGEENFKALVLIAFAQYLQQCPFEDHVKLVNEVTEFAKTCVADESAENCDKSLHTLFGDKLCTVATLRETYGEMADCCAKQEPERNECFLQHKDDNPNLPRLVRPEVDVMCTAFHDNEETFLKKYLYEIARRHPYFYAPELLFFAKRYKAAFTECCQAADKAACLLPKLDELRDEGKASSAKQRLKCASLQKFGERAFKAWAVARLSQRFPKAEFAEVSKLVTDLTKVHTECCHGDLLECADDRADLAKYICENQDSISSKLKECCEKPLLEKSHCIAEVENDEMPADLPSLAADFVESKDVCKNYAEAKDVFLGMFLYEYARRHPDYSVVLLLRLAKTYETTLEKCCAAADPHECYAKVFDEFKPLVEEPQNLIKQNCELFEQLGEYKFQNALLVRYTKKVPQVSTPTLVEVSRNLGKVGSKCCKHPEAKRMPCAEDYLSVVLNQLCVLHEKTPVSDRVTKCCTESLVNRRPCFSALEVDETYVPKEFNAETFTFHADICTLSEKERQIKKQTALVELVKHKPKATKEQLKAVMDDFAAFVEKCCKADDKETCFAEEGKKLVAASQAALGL

Binder	IC50 (µM) for cellular ROS level induced by DAMP [µM]
B2	3.91
B4	4.12
B6	5.87
B10	6.13
